Measured values as given in patent US20050049299A1, “Selective inhibitors of stat-3 activation and uses thereof” (priority 2003, published 2005).

Columns and labels:
[1] = test system: MM.1S and MM.1R cells; assay: TNF- and LT-induced proliferation of MM.1S and MM.1R cells (thymidine incorporation); format: cell-based, human; conditions: serum starved 12 h, 48 hours serum-free
Experimental: (§1) The cell proliferation assay was performed as described below. Results are shown as mean (±s.d. indicated by error bar) of percent [^3H] thymidine incorporation of triplicate cultures compared to the untreated control. […] Cells were treated with IL-6 for 10 minutes as a positive control for STAT3 phosphorylation. Thirty micrograms of whole cell extract was were resolved on 7.5% SDS-PAGE, electrotransferred to a nitrocellulose membrane, and probed for phosphorylated-STAT3 (upper panel), stripped, and reprobed for STAT3 (lower panel).
The antiproliferative effects of curcumin were also monitored by the thymidine incorporation method. For this, 5000 cells in 100 μl medium were cultured in triplicate in 96-well plates in the presence or absence of curcumin for 24 h. Six hours before the completion of experiment, cells were pulse treated with 0.5 μCi [^3H]thymidine, and the uptake of [^3H]thymidine was monitored using a Matrix-9600 β-counter (Packard Instruments, Downers Grove, Ill.).
(§2) MM.1S and MM.1R cells were serum starved for 12 h and then treated with TNF or lymphotoxin in the serum free medium.

[2] = test system: STAT3 phosphorylation; assay: STAT3 phosphorylation in MM.1S and MM.1R cells after TNF, LT or IL-6 (Western blot); format: cell-based, human; conditions: 1 nM TNF or LT
Experimental: as §1
For detection of STAT proteins, whole-cell extracts were prepared by lysing the curcumin-treated cells in lysis buffer (20 mM Tris, pH 7.4, 250 mM NaCl, 2 mM EDTA, pH 8.0, 0.1% Triton-X100, 0.01 mg/ml aprotinin, 0.005 mg/ml leupeptin, 0.4 mM PMSF, and 4 mM NaVO4). Lysates were then spun at 14000 rpm for 10 min to remove insoluble material, and resolved on a 7.5% gel. After electrophoresis, the proteins were electrotransferred to a nitrocellulose membrane, blocked with 5% nonfat milk, and probed with anti-STAT antibodies (1:1000) overnight at 4° C. The blot was washed, exposed to HRP-conjugated secondary antibodies for 1 h, and finally examined by chemiluminescence (ECL, Amersham Pharmacia Biotech. Arlington Heights, Ill.).
as §2

B1: lymphotoxin: bacteria-derived recombinant human LT provided by Genentech (protein, UniProt P01374 35-205, looked up)
Lymphotoxin-alpha: LPGVGLTPSAAQTARQHPKMHLAHSTLKPAAHLIGDPSKQNSLLWRANTDRAFLQDGFSLSNNSLLVPTSGIYFVYSQVVFSGKAYSPKATSSPLYLAHEVQLFSSQYPFHVPLLSSQKMVYPGLQEPWLHSMYHGAAFQLTQGDQLSTHTDGIPHLVLSPSTVFFGAFAL
proliferative effects in MM.1S and MM.1R cells [1]: more pronounced in dex-resistant MM.1R cells than in dex-sensitive MM.1S cells
induction of STAT3 phosphorylation [2]: neither TNF nor lymphotoxin induced STAT3 phosphorylation
